# Laboratory results: paper PMC3973126 (Journal of Human Genetics, 2014)
# B1: UGT1A1 (sample observed by atomic force microscopy) (enzyme, human, UniProt P22309 26-533, looked up)
# chain: HAGKILLIPVDGSHWLSMLGAIQQLQQRGHEIVVLAPDASLYIRDGAFYTLKTYPVPFQREDVKESFVSLGHNVFENDSFLQRVIKTYKKIKKDSAMLLSGCSHLLHNKELMASLAESSFDVMLTDPFLPCSPIVAQYLSLPTVFFLHALPCSLEFEATQCPNPFSYVPRPLSSHSDHMTFLQRVKNMLIAFSQNFLCDVVYSPYATLASEFLQREVTVQDLLSSASVWLFRSDFVKDYPRPIMPNMVFVGGINCLHQNPLSQEFEAYINASGEHGIVVFSLGSMVSEIPEKKAMAIADALGKIPQTVLWRYTGTRPSNLANNTILVKWLPQNDLLGHPMTRAFITHAGSHGVYESICNGVPMVMMPLFGDQMDNAKRMETKGAGVTLNVLEMTSEDLENALKAVINDKSYKENIMRLSSLHKDRPVEPLDLAVFWVEFVMRHKGAPHLRPAAHDLTWYQYHSLDVIGFLLAVVLTVAFITFKCCAYGYRKCLGKKGRVKKAHKSKTH
# Molecular target: the molecule itself
# Assay: atomic force microscopy
protein,measurement,value
B1,stoichiometry N,2
